These are literature values, as cited in paper PMC6503043.

Usually Kd stands for the free concentration of one partner at which half of the binding sites on the other are occupied at equilibrium, for simple one-to-one binding.

Where two headings read alike, the source gives them in different places.

Data set [1] addresses CD28 (Homo sapiens) (UniProt P10747).
The target is the same in data set [2]. This is another data set of the same source.

Regarding B7-1 (from UniProt P33681), in the data set with CD28 (Homo sapiens) [1], the Kd was 5 µM.
Regarding B7-2 (from UniProt P42081), in the data set with CD28 (Homo sapiens) [2], the Kd was 20 µM.
